How the values were obtained:
[1] = molecular target: T1, recombinant cynomolgus monkey (Macaca fascicularis) transferrin receptor 1 (cynomolgus monkey (Macaca fascicularis), UniProt Q5RDH6 87-760 (Pongo abelii entry), limits assumed); experiment: ELISA, Fab-ASO300 conjugate; printed as 'DMPK oligo conjugate binding to cyno TfR1 (nM)'
T1 construct: also called cTfR1; cyno TfR1
T1 chain: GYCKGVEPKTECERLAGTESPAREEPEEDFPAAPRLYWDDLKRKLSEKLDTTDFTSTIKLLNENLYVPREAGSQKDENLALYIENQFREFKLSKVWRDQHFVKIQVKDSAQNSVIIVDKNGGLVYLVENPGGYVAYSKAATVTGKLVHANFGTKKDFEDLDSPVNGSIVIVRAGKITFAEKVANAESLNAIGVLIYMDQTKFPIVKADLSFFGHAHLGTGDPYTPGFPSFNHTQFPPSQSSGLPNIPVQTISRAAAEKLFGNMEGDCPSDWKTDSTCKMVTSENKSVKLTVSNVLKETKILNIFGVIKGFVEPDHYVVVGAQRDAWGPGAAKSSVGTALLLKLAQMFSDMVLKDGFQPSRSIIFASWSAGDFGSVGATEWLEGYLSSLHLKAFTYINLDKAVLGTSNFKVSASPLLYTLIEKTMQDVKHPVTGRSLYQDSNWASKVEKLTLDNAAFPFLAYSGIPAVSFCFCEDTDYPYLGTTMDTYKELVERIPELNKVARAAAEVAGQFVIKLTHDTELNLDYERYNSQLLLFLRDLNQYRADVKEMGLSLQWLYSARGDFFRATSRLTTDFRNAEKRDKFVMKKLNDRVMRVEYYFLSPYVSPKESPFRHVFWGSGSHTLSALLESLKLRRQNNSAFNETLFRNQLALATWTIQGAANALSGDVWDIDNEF

[2] = molecular target: T2, recombinant human transferrin receptor 1 (human, UniProt P02786 89-760); experiment: ELISA, Fab-ASO300 conjugate; printed as 'DMPK oligo conjugate binding to hTfR1 (nM)'; Table 9 (thermal stability table); DMPK oligo conjugate, hTfR1
T2 construct: also called hTfR1; huTfR1

B1: 5H12 (VH5-C33Y/Vk4) Fab conjugated to DMPK-targeting oligonucleotide ASO300 (Fab, V domains shown)
VH: QVQLVQSGAEVKKPGASVKVSCKASGYSFTDYYINWVRQAPGQGLEWMGWIYPGSGNTRYSERFKGRVTITRDTSASTAYMELSSLRSEDTAVYYCAREDYYPYHGMDYWGQGTLVTVSS
VL: DIVMTQSPDSLAVSLGERATINCRASESVDGYDNSFMHWYQQKPGQPPKLLIFRASNLESGVPDRFSGSGSGTDFTLTISSLQAEDVAVYYCQQSSEDPWTFGQGTKLEIKR
modifications: ASO300 oligonucleotide covalently conjugated via linker of Formula (C); residue and chain not stated
notes: also called DMPK oligo conjugate
EC50 [1]: 13.9 nM | EC50 [2]: 13.9 nM
